Our source for the stoichiometry N values is PMC4397081.

In general, stoichiometry N refers to the number of molecules, sites or subunits per partner or assembly.

The assay deals with Type 2 (MM2) sCJD proteinase K-resistant PrP^Sc aggregates (human). The assay is described as follows: sedimentation velocity in sucrose gradient (ultracentrifugation).

As to “Type 2 (MM2) sCJD proteinase K-resistant PrP^Sc aggregates (complex)”, the stoichiometry N is > 600 monomers.
